Assay results: patent publication US20220315663A1 (published 2022)

Molecular target: T1, cynomolgus monkey CD79b antigen (cynomolgus monkey)
T1 construct: also called cyno CD79b; CD9W1.001
Experiment: SPR, cyno CD79b against human CD79b (refers to Table 32)

B1: C923B38 (trispecific antibody, human IgG1, kappa, L234A L235A)
heavy: QVQLQESGPGLVKPSETLSLTCSVSGASISSFYWSWIRQPADEGLEWIGRISPSGKTNYIPSLKSRIIMSLDASKNQFSLRLNSVTAADTAMYYCARGEYSGTYSYSFDVWGQGTMVTVSSASTKGPSVFPLAPSSKSTSGGTAALGCLVKDYFPEPVTVSWNSGALTSGVHTFPAVLQSSGLYSLSSVVTVPSSSLGTQTYICNVNHKPSNTKVDKKVEPKSCDKTHTCPPCPAPEAAGGPSVFLFPPKPKDTLMISRTPEVTCVVVSVSHEDPEVKFNWYVDGVEVHNAKTKPREEQYNSTYRVVSVLTVLHQDWLNGKEYKCKVSNKALPAPIEKTISKAKGQPREPQVYTLPPSREEMTKNQVSLSCAVKGFYPSDIAVEWESNGQPENNYKTTPPVLDSDGSFFLVSKLTVDKSRWQQGNVFSCSVMHEALHNRFTQKSLSLSPGK
light: DIVMTQSPLSLSVTPGEPASISCRSSESLLDSEDGNTYLDWFLQKPGQSPQLLIYTLSYRASGVPDRFSGSGSDTDFTLHISSLEAEDVGLYYCMQRMEFPLTFGQGTKVEIKRTVAAPSVFIFPPSDEQLKSGTASVVCLLNNFYPREAKVQWKVDNALQSGNSQESVTEQDSKDSTYSLSSTLTLSKADYEKHKVYACEVTHQGLSSPVTKSFNRGEC
chain: EIVLTQSPATLSASPGERVTLSCSASSSVSYMNWYQQKPGQAPRRWIYDSSKLASGVPARFSGSGSGRDYTLTISSLEPEDFAVYYCQQWSRNPPTFGGGTKVEIKGGSEGKSSGSGSESKSTGGSQVQLVQSGAEVKKPGSSVKVSCKASGYTFTRSTMHWVKQAPGQGLEWIGYINPSSAYTNYNQKFQGRVTLTADKSTSTAYMELSSLRSEDTAVYYCASPQVHYDYAGFPYWGQGTLVTVSSEPKSSDKTHTCPPCPAPEAAGGPSVFLFPPKPKDTLMISRTPEVTCVVVSVSHEDPEVKFNWYVDGVEVHNAKTKPREEQYNSTYRVVSVLTVLHQDWLNGKEYKCKVSNKALPAPIEKTISKAKGQPREPQVYTLPPSREEMTKNQVSLWCLVKGFYPSDIAVEWESNGQPENNYKTTPPVLDSDGSFFLYSKLTVDKSRWQQGNVFSCSVMHEALHNHYTQKSLSLSPGKGGSEGKSSGSGSESKSTGGSAIQLTQSPSSLSASVGDRVTITCRASSSVSYIHWFQQKPGKAPKPLIYATSNLASGVPSRFSGSGSGTDFTLTISSLQPEDFATYYCQQWTSNPPTFGQGTKLEIKGGSEGKSSGSGSESKSTGGSQVQLVQSGAEVKKPGSSVKVSCKASGYTFTSYNMHWVRQAPGQGLEWMGAIYPGNGDTSYAQKFQGRVTITADKSTSTAYMELSSLRSEDTAVYYCARSTYYGGDWYFNVWGQGTLVTVSS
notes: IgG1 trispecific: Fab to CD79b; second chain carries the CD3 scFv, the Fc and the CD20 scFv; also called CD79b×CD20×CD3 trispecific antibody
fold weaker affinity compared to human: > 10000 fold
